Measured values from the Human Domainome abundance scans (Beltran et al. 2025).

B1: Dystrobrevin alpha, residues 235 to 294; numbered along this chain, Q9Y4J8 (parent)
chain: ENVFHPVECSYCHSESMMGFRYRCQQCHNYQLCQDCFWRGHAGGSHSNQHQMKEYTSWKS

Variants of: B1
Test: abundance fitness (aPCA) (normalised: wild type 0, dead -1); higher = more abundant; growth selection in yeast, the domain comes from the species named
Details: Homo sapiens

Abundance fitness of substitutions, site by site:
S16: K 0.001, T 0.014, H -0.206
C24: K -0.928, G -0.736, P -1.08, L -0.911, H -0.887, F -1.04, N -0.691, D -0.441, I -0.822, M -0.731, E -0.615, Q -0.561, R -0.97, S -0.851, T -0.752
C9: Q -1.05, K -0.901, Y -1.26, P -0.969, M -1.31, N -1.06, S -1.01, W -1.23, H -1.26, V -1.1, F -1.25, I -1.19, D -0.904, L -1.22, A -1.12, E -0.908, G -0.93
M17: F -0.002, S 0.109, I 0.045, K 0.136, G 0.085, R 0.007, N 0.046, C -0.055, Y -0.183, E 0.116, Q -0.019, T 0.081, A -0.037, H 0.116, V 0.004, W -0.084, P -0.008, D 0.059
H13: V -0.457, D -0.474, P -0.677, W -0.584, R -0.061, Q -0.172, K -0.027, C -0.176, F -0.243, M -0.109, L -0.176, T -0.076, A -0.107, S -0.096, N -0.169, I -0.406, Y -0.165, G -0.027, E -0.23
Y22: K -0.263, S -0.405, P -0.904, I -0.337, D -0.814, T -0.437, R -0.241, V -0.051, N -0.364, E -0.675, A -0.13, H -0.053, W -0.086, M -0.142, C -0.409, L -0.3, Q -0.754, G -0.658
R23: Q 0.034, I -0.05, E 0.03, F -0.034, K 0.147, P -0.509, W -0.276, L 0.002, Y -0.138, G -0.158, D -0.022, C 0.176, S 0.066, A -0.049, H 0.201, M 0.006, T -0.008, V 0.074
E8: H -0.049, Y -0.157, A -0.365, P -0.001, W -0.39, R -0.222, F -0.13, V -0.329, K -0.214, Q -0.155, G 0.051, I -0.104, S -0.124, M -0.35, D -0.206, T -0.234, L -0.233, N -0.17
Y11: W -0.155, T -0.201, N -0.256, V -0.193, S -0.219, F 0.039, P -0.658, A -0.208, G -0.099, Q -0.223, C -0.247, R -0.37, D -0.313, M -0.055, I -0.191
H5: Q -0.195, L -0.125, M -0.114, W -0.143, N 0.259, P -0.102, R -0.176
M18: A 0.199, V 0.155, D 0.129, F 0.126, R 0.111, E 0.103, L 0.09, T 0.075, P 0.116, N 0.101, C -0.189, Y 0.075, Q 0.156, S 0.133, I -0.021, K 0.029, G 0.064, W -0.266, H 0.163
